Experimental data reported in FireProtDB (doi:10.1021/bi00125a013).

Settings: Bacillus amyloliquefaciens, 20 °C, Urea, Fluorescence, whole UniProt chain shown
[1] = pH 2.76, diglycine 30 mM, NaCl 0.5 M
[2] = pH 2.82, diglycine 30 mM, NaCl 0.1 M

B1: Ribonuclease wild type, P00648 (protein)
chain: MMKMEGIALKKRLSWISVCLLVLVSAAGMLFSTAAKTETSSHKAHTEAQVINTFDGVADYLQTYHKLPDNYITKSEAQALGWVASKGNLADVAPGKSIGGDIFSNREGKLPGKSGRTWREADINYTSGFRNSDRILYSSDWLIYKTTDHYQTFTKIR
pH 2.5, diglycine 100 mM
  denaturant m value: 3.22 kcal/mol/M
  denaturant midpoint (higher = more stable): 0.52 M
  unfolding free energy: 1.66 kcal/mol
[1]
  denaturant m value: 2.62 kcal/mol/M
  denaturant midpoint (higher = more stable): 1.61 M
  unfolding free energy: 4.2 kcal/mol
[2]
  denaturant m value: 2.97 kcal/mol/M
  denaturant midpoint (higher = more stable): 1.21 M
  unfolding free energy: 3.58 kcal/mol
pH 2.87, diglycine 30 mM
  denaturant m value: 3.19 kcal/mol/M
  denaturant midpoint (higher = more stable): 1.14 M
  unfolding free energy: 3.63 kcal/mol
pH 2.98, diglycine 100 mM
  denaturant m value: 3.28 kcal/mol/M
  denaturant midpoint (higher = more stable): 1.39 M
  unfolding free energy: 4.55 kcal/mol
